Assay results taken from article PMC9969694, “YULINK regulates vascular formation in zebrafish and HUVECs” (Biological Research, 2023).

Legend:
Test in all cases: FRET or BRET; FLIM-FRET in HEK-293 T cells 48 h after co-transfection; AcGFP donor on YULINK (full-length or truncated), DsRed acceptor on the partner; mean fluorescence lifetime τ of AcGFP and FRET efficiency E; AcGFP-YULINK alone about 2.71 ns
AcGFP-YULINKΔN (human) = target: AcGFP-YULINKΔN (human)
AcGFP-YULINKΔC (human) = target: AcGFP-YULINKΔC (human)
[1] = target: T1, AcGFP-YULINK (full-length) (human, UniProt Q9NXC5-1 1-875); conditions: partners not purified
T1 construct: YULINK, full-length, conjugated with AcGFP; also called full-length AcGFP-YULINK; source: HEK-293 T, co-transfected, in live cells
T1 sequence (looked up): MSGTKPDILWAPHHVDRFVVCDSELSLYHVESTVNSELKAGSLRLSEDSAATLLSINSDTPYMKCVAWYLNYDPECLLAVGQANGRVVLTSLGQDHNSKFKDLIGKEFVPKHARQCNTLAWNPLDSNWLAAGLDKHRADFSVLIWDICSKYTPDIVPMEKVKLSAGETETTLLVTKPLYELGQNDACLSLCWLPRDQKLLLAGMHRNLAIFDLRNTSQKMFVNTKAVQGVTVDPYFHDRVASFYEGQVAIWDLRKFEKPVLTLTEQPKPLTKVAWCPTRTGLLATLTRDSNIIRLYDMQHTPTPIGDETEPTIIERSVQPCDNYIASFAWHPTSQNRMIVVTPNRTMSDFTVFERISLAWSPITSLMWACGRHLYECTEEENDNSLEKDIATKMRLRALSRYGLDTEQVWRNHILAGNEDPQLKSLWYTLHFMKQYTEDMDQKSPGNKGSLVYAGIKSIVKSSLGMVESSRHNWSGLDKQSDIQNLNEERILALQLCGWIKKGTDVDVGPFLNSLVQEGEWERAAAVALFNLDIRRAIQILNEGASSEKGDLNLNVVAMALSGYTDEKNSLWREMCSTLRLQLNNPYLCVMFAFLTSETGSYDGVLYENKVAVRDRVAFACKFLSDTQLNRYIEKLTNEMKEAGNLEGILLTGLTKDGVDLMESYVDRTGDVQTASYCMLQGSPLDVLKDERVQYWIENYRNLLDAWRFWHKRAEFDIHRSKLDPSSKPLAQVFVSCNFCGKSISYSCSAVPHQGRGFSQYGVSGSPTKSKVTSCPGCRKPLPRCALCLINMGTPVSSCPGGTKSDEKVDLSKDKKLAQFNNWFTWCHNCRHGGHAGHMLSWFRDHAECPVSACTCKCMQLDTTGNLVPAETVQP

DsRed-TICAM2, sequence (Q86XR7 whole entry): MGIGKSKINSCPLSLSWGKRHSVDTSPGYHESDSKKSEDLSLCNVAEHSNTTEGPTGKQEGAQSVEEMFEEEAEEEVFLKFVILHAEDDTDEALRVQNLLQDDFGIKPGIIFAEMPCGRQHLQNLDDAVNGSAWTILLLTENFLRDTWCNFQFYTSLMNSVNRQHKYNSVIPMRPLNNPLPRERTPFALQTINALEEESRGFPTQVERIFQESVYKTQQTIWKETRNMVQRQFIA

| Molecule | FRET efficiency E (AcGFP-YULINKΔN (human)) [%] | mean fluorescence lifetime τ of the donor (AcGFP-YULINKΔN (human)) [ns] | FRET efficiency E (AcGFP-YULINKΔC (human)) [%] | mean fluorescence lifetime τ of the donor (AcGFP-YULINKΔC (human)) [ns] | FRET efficiency E [1] [%] | mean fluorescence lifetime τ of the donor [1] [ns] |
| --- | --- | --- | --- | --- | --- | --- |
| DsRed-RAB33B (from UniProt Q9H082 1-229) (natural protein) | 36.5 | 1.72 |  |  |  |  |
| DsRed-TICAM2 (from UniProt Q86XR7 1-235) (natural protein) | 19.6 | 2.18 | 17.7 | 2.23 |  |  |
| DsRed-RAB33B (natural protein, human, UniProt Q9H082 1-229, looked up, RAB33B conjugated with DsRed; source: HEK-293 T, co-transfected, in live cells) MAEEMESSLEASFSSSGAVSGASGFLPPARSRIFKIIVIGDSNVGKTCLTYRFCAGRFPDRTEATIGVDFRERAVEIDGERIKIQLWDTAGQERFRKSMVQHYYRNVHAVVFVYDMTNMASFHSLPSWIEECKQHLLANDIPRILVGNKCDLRSAIQVPTDLAQKFADTHSMPLFETSAKNPNDNDHVEAIFMTLAHKLKSHKPLMLSQPPDNGIILKPEPKPAMTCWC |  |  |  |  | 8.1 | 2.49 |
| DsRed-EPS15 (natural protein, human, UniProt P42566 1-896, looked up, EPS15 conjugated with DsRed; also called DsRed-ESP15; source: HEK-293 T, co-transfected, in live cells) MAAAAQLSLTQLSSGNPVYEKYYRQVDTGNTGRVLASDAAAFLKKSGLPDLILGKIWDLADTDGKGILNKQEFFVALRLVACAQNGLEVSLSSLNLAVPPPRFHDTSSPLLISGTSAAELPWAVKPEDKAKYDAIFDSLSPVNGFLSGDKVKPVLLNSKLPVDILGRVWELSDIDHDGMLDRDEFAVAMFLVYCALEKEPVPMSLPPALVPPSKRKTWVVSPAEKAKYDEIFLKTDKDMDGFVSGLEVREIFLKTGLPSTLLAHIWSLCDTKDCGKLSKDQFALAFHLISQKLIKGIDPPHVLTPEMIPPSDRASLQKNIIGSSPVADFSAIKELDTLNNEIVDLQREKNNVEQDLKEKEDTIKQRTSEVQDLQDEVQRENTNLQKLQAQKQQVQELLDELDEQKAQLEEQLKEVRKKCAEEAQLISSLKAELTSQESQISTYEEELAKAREELSRLQQETAELEESVESGKAQLEPLQQHLQDSQQEISSMQMKLMEMKDLENHNSQLNWCSSPHSILVNGATDYCSLSTSSSETANLNEHVEGQSNLESEPIHQESPARSSPELLPSGVTDENEVTTAVTEKVCSELDNNRHSKEEDPFNVDSSSLTGPVADTNLDFFQSDPFVGSDPFKDDPFGKIDPFGGDPFKGSDPFASDCFFRQSTDPFATSSTDPFSAANNSSITSVETLKHNDPFAPGGTVVAASDSATDPFASVFGNESFGGGFADFSTLSKVNNEDPFRSATSSSVSNVVITKNVFEETSVKSEDEPPALPPKIGTPTRPCPLPPGKRSINKLDSPDPFKLNDPFQPFPGNDSPKEKDPEIFCDPFTSATTTTNKEADPSNFANFSAYPSEEDMIEWAKRESEREEEQRLARLNQQEQEDLELAIALSKSEISEA |  |  |  |  | 11.4 | 2.4 |
